Consider 5 molecules from patent US20230149522A1, “POLYPEPTIDE FOR THE PROPHYLAXIS AND TREATMENT OF VIRAL INFECTIONS” (priority 2020, published 2023).

For data set [1], the system named is LV(Luc)-G. Format: cell-based, Vesicular Stomatitis Virus.
Data set [2] deals with LV(Luc)-MLV.
The test system of data set [3] is VSV(Luc-eGFP)-CoV-2. In words: microbe, parasite or virus in culture. As to conditions: Vesicular stomatitis virus, Caco-2, read-out: IC50 VSV(Luc-eGFP)-CoV-2.
Data set [4] concerns LV(Luc)-CoV-2. In words: microbe, parasite or virus in culture. Conditions: Severe acute respiratory syndrome coronavirus 2, Caco-2, read-out: IC50 LV(Luc)-CoV-2.
Data set [5] relates to VSV(Luc-eGFP)-CoV-2.
In data set [6] the test system is VSV(Luc-eGFP)-G.
Data set [7] relates to LV(Luc)-CoV-2.
In data set [8] the test system is Caco2 (colorectal carcinoma cells).
Data set [9] has the same test system. This is another data set of the same source.
The mark [10] stands for this setting: read-out: IC50 VSV(Luc-eGFP)-CoV-2.

Where two headings read alike, the source gives them in different places.

`CN(C)C(=O)COC(=O)Cc1ccc(OC(=O)c2ccc(NC(=N)N)cc2)cc1` [CM, camostat mesilate, reference compound]: the “IC50 LV(Luc)-G” value in data set [1] is “unstable”. In addition, the “IC50 LV(Luc)-MLV” value in data set [2] is “unstable”. Also, the concentration for half-maximal inhibition (IC50) in data set [3] was found to be 87.5 nM; in data set [4], 242 nM.

With `CC[C@H](C)[C@H](NC(=O)[C@H](C)NC(=O)[C@H](CCC(=O)O)NC(=O)[C@H](CCC(=O)O)NC(=O)[C@H](CC(C)C)NC(=O)[C@H](CCCCN)NC(=O)[C@H](CCCCN)NC(=O)[C@H](CCSC)NC(=O)[C@H](CCC(=O)O)NC(=O)[C@H](Cc1ccc(O)cc1)NC(=O)[C@H](CCC(=O)O)NC(=O)[C@H](CC(C)C)NC(=O)[C@H](CC(=O)O)NC(=O)[C@H](CC(C)C)NC(=O)[C@H](Cc1ccccc1)NC(=O)[C@@H](NC(=O)[C@@H](NC(=O)[C@H](CC(N)=O)NC(=O)[C@@H](NC(=O)[C@H](CCC(N)=O)NC(=O)[C@H](CC(=O)O)NC(=O)[C@H](CC(C)C)NC(=O)[C@@H](N)CO)[C@@H](C)CC)C(C)C)[C@@H](C)O)C(=O)N[C@@H](CCCCN)C(=O)N[C@@H](CCCCN)C(=O)N[C@@H](CC(C)C)C(=O)N[C@@H](CCC(=O)O)C(=O)N[C@@H](CCC(=O)O)C(=O)N[C@@H](CO)C(=O)N[C@@H](Cc1ccc(O)cc1)C(=O)N[C@H](C(=O)N[C@@H](CC(=O)O)C(=O)N[C@@H](CC(C)C)C(=O)N[C@@H](CCCCN)C(=O)N[C@@H](CCC(=O)O)C(=O)N[C@@H](CC(C)C)C(=O)O)[C@@H](C)CC` [EK1, reference compound], the IC50 was 281 nM in data set [5] (2 h), more than 20000 nM in [6] (2 h), 82.4 nM in data set [7] (1 h) and more than 20000 nM in [2] (1 h).

B1: LD2/3 (protein)
chain: ARHLARAPKATAPTELNCDDFKKGERDGDFICPDYYEAVCGTDGKTYDNRCALCAENAKTGSQIGVKSEGECKSSNPEQDVCSAFRPFVRDGRLGCTRENDPVLGPDGKTHGNKCAMCAELFLKEAENAKREGETRIRRN
modifications: human
B1: the IC50 in data set [1] was 128 nM; in data set [5] (setting [10]), 411 nM; in [6] (read-out: IC50 VSV(Luc-eGFP)-G), 257 nM; in data set [7] (read-out: IC50 LV(Luc)-CoV-2) it was 181 nM; in data set [2] (read-out: IC50 LV(Luc)-MLV), 343 nM. For the same molecule, the “toxicity at the concentrations tested” value in [8] is given as “toxic at the (two) maximum concentrations tested”.

B2: LD15 (protein)
chain: EEDSPDSFSSLDSEMCKDYRVLPRIGYLCPKDLKPVCGDDGQTYNNPCMLCHENLIRQTNTHIRSTGKCEESSTPGTTAASMPPSDE
modifications: human
On to B2, for which the half-inhibitory concentration (IC50) was 545 nM in data set [1]; 1850 nM in data set [5] (setting [10]); 1020 nM in data set [6] (read-out: IC50 VSV(Luc-eGFP)-G); 956 nM in data set [7] (read-out: IC50 LV(Luc)-CoV-2); 1270 nM in [2] (read-out: IC50 LV(Luc)-MLV). The “toxicity at the concentrations tested” value in data set [8] is “toxic at the (two) maximum concentrations tested”.

B3: LD6 (protein)
chain: ESGKATSYAELCNEYRKLVRNGKLACTRENDPIQGPDGKVHGNTCSMCEVFFQAEEEEKKKKEGESRNKR
modifications: human
As for B3, the half-inhibitory concentration (IC50) in data set [1] was determined as 2150 nM; in [5] (setting [10]) it was 4090 nM; in data set [6] (read-out: IC50 VSV(Luc-eGFP)-G) it was 1610 nM; in data set [7] (read-out: IC50 LV(Luc)-CoV-2), 1030 nM. The “IC50 LV(Luc)-MLV” value in data set [2] is listed as “unstable”. Besides, the “toxicity at the concentrations tested” value in data set [9] and in data set [8] was “toxic at the (two) maximum concentrations tested” in each case.

As usually defined, the IC50 is the point on the concentration scale where inhibition reaches its midpoint.
